Measured values taken from the DeepSol protein solubility set.

Test: soluble on expression in E. coli; label from the status in PepcDB or PDB records

For “MGSDKIHHHHHHVRVPLLDRDHPRYGNDRFWPGMRAELAKLWRERGHAPILNPPRPRARTHKIQESRSMHLEVLRVPPTTADPEMADRPPLVFVHGAFAGAWCWRETFMPWFAARGWDTHALSLRGHGASDGAERLDSTRLADYADDLRRVIDELDRPPVLIGHSMGGMVVQKVLEDTQAAAAVLLASVPPTGLFSGSVLMALRHPLLCMALWRIQTFGPEEASLRMVEAGLFSTPLDAREAERYTALLQNESSRVVLDMTWFDVPRRRCPQELPLLVLGAEDDAFVPPIEVLATAAFHGTTAQLLPDIGHAMMLDRGWEKTASVMEEWLRCSAF”, which “soluble on expression in E. coli” value is on record?
Its value is “not soluble”.

With “MSDLYVTKEGDMVDAICWRYYAKGQQALAVERVYAANFGLADYGPILKAGITIVLPILPYPKATPVIRIWGSQS” as the sequence, how does the “soluble on expression in E. coli” value read?
The value was “not soluble”.

With “MGSDKIHHHHHHMLSHRLQDTSLRYFLEVVRTGSLTEAAQRLNVTVSAVSRQVAALESWLGVPLFDRRPRGMVASAAGELLAAYALRNALEADRVVTEIDALQGLRRGRVRVASSAGFAIEFLPRAIADFRERYPGLHFHVRVAPPAEVTGIVLHGDADIGITYSRAAEQGIRVEHRQAAPVIAIMRPDHALARFRSITLSQMLPYPLALPEGDNTVRQLFDIACGERGVAFEPVLVSNQFETLTSFVLHGGGLSISGGVTVGDRLRRGELHAATIRERGMKSRAIELQTLAGRTLPEGVRTFLGFVRDRLVEEAGIGS” as the sequence, how does the “soluble on expression in E. coli” value read?
Its value is “not soluble”.

For “DIGCYTLGALPPFREQDSATNMGSSLGISNGVFRSTDQVPVAVIGDSTFFHSGIEGVANAVYNNTAEIIVVLDNRSTAMTGQQPSPSTAIDIGNVCRAMGIEYVETFDPFDVDAGEKAVQQAAEYVKKTLKPAVIIAKRACALEVLEKVDSETPKAYVDSNRCT”, which “soluble on expression in E. coli” value is on record?
The value was “not soluble”.

With “MSLRIEEIRRYHESLMVELDRIYRIAEAARKKGLDPELSVEIPIAKNMAERVEKLMNLQGLAKRIMELEEGGLSRELICFKVADEIVEGKFGEMPKEEAIDKAVRTAVAIMTEGVVAAPIEGIARVRIDRENFLRVYYAGPIRSAGGTAQVISVLVADYVRRKAEIGRYVPTEEEILRYCEEIPLYKKVANLQYLPSDEEIRLIVSNCPICIDGEPTESAEVSGYRNLPRVETNRVRGGMALVIAEGIALKAPKLKKMVDEVGIEGWEWLDALIKGEGHHHHHH” as the sequence, how does the “soluble on expression in E. coli” value read?
The value was “soluble”.

With “MSLNERVMMINANGVPIALYNRGHLGSGHFGAVIKASLDDGTLYAAKVPYSQIVPNADATSAELEAEISSARAELVKTIRQELDVRDKLVAKGLTLTETAEQYGLPLCQMTLTLPENKATVVRRGSRLVVVSKEVMLLPLIDGSPSNSLVQSQPPFLFQRAVAREAIIALAKLHELGFAHGDVKLNNMMIDVHGFGHMLDMGSVRPVDSCVSEEDKYYLRLWAPELAKSQHTSQQTCLKRGALDVWALGLAIFEFVCFNRLPYSLSNLPSSLWSRVEHLSRLRLSDFSAKDCNESDPAVMGIVAQFLNPNPEERPELPKFVSSYTFFRQAPGVTSHLTRIPTTELSSHREGHHHHHH” as the sequence, how does the “soluble on expression in E. coli” value read?
The value was “soluble”.

With “MSLETRARNSTRPASGLIDWEQARQAALRLSQWEQAPVDNRAFRREQYARMVALSEPLIADYLGVRLPEPVSRIFVFDRREWLEANIVSFSQLFRPIEEMYEKNGGGRGALGVLMNDVSSKLLGVQIGGLLGYLAQRVLGQYDLSLLSAEATGGSLYFVEPNIARVQQQLGLSDEDFRLWITLHEMTHAFEFEAYPWVRTYFRELLEQNFALVSGQMLSSGNSLVDMLMRLLQGIGSGQHWIETVLTPEQRAVFDRIQALMSLIEGYGNHVMNAVGRRLLPSFNQIEQQIAQRQRQRTMLDQMVFRLTGLDLKLAQYQQGEAFVNAVVAARGIQFASRVWERPENLPSMDEIRNPGQWIVRMDREGHHHHHH” as the sequence, how does the “soluble on expression in E. coli” value read?
The value was “soluble”.

For “MGSDKIHHHHHHMNLGNPIAKGNTAEIYLYDNKIMKLFKDYLPNTESMNEAKKQKYAYSCGLPVPNVFEVTKIQNRQAIIMEYVKGDSIGDLLLNNLNEAEYYINICVNEQKKIHAIHVNTDEMEAMGERLERQIKSVHKLDEKQKESILNKLHSIKLDPRLCHGDFHPFNLILSEKNVSIIDWIDASSGDIRADLFRTYLLYSQSSVELAEKYLHIYCRNTGLSRDEIFQWAPIIIAARISENVTATNIEYLNDLVAQYCN”, which “soluble on expression in E. coli” value is on record?
Its value is “not soluble”.

For “MRYEIADNYYAFWFRFVYPNRKLVERELYKEALELVKRDYNHYMGRVFEKASLDFLWKRFAFERAGRWWSREEEIDVVGVKRGMAYFFEVKWKDLSEREARRSLEHHHHHH”, which “soluble on expression in E. coli” value is on record?
The value was “not soluble”.

For “MKNKLLYKLRSGKNPKFIYYSVNALRLIIPKGIFRLRLQGKLSSLSRRKDKEYIEHRVDYYNKLSGTVQLPSSAPHLSEHKMSKQKVYFFDTYQYTRWFSDQFQWGFCPGDVTFVPDYPSIVKSRPLTDDNVNSIVMKLDKVRHFIFVDDKKAFTEKKNMVIFRGKVKGKPSRKLFMEMYFHHPMCDLGDVSKNTTDPAEWRTEKKTINEHLDYKFIMALEGIDVASNLKWVMSSNSIAVMPRPTCETWFMEGTLIPNYHYIEIKPDFSDLEERLNYYIEHVDESLEIINHAHEYVSQFKDKRRENLISLLVLDKYFKMTGQKSLEHHHHHH”, which “soluble on expression in E. coli” value is on record?
The value was “soluble”.

With “MGSDKIHHHHHHMHTFLASSSMQLSVPPNHFQSMKIVALGDSLIYGFGDPEKGGWIEQLRRWWMLPDSAGHVLYNLGVRGDRTQQVAQRLEVEFRHRGELRNRVPDLIILSVGVNDSARLARPDGRSYTDFTLFEKEIATLLDLAQQLCPVLFVGMVPVDEAKMPFLDCFYYNHVDQYRYKEATRLACTKRQIPYLDIFEKWMERGENWRLKRLSEDGLHPNTLGYQALLEDVINWDAIHSVGFANAAYHSQFNYHLKQS” as the sequence, how does the “soluble on expression in E. coli” value read?
The value was “not soluble”.

For “MILKASKEALKEAVEILKKGGIIVAPTDTLYGILADATNEEAVKRLYKIRRPSGKPFLVLLPDESWLEKLCLDVKEEHKKLLKVEGLTLVFRKTCDKLDYVSKGTLAVRLPQKGFIRDLLSELKKPVVAPSVNPEGKKPAESVEEAYNYFGNKVDLYIDAGVIKGEPSTILDLTEGVKILREGKVKKEEIEKILNRKL”, which “soluble on expression in E. coli” value is on record?
The value was “soluble”.

For “MADNLPSDFDVIVIGTGLPESIIAAACSRSGQRVLHVDSRSYYGGNWASFSFSGLLSWLKEYQENNDVVTENSMWQEQILENEEAIPLSSKDKTIQHVEVFCYASQDLHKDVEEAGALQKNHASVTSAQSAEAAEAAETSCLPTAVEPLSMGSCEIPAEQSQCPGPESSPEVNDAEATGKKENSDAKSSTEEPSENVPKVQDNTETPKKNRITYSQIIKEGRRFNIDLVSKLLYSRGLLIDLLIKSNVSRYAEFKNITRILAFREGTVEQVPCSRADVFNSKQLTMVEKRMLMKFLTFCVEYEEHPDEYRAYEGTTFSEYLKTQKLTPNLQYFVLHSIAMTSETTSCTVDGLKATKKFLQCLGRYGNTPFLFPLYGQGELPQCFCRMCAVFGGIYCLRHSVQCLVVDKESRKCKAVIDQFGQRIISKHFIIEDSYLSENTCSRVQYRQISRAVLITDGSVLKTDADQQVSILTVPAEEPGSFAVRVIELCSSTMTCMKGTYLVHLTCMSSKTAREDLERVVQKLFTPYTEIEAENEQVEKPRLLWALYFNMRDSSDISRDCYNDLPSNVYVCSGPDSGLGNDNAVKQAETLFQQICPNEDFCPAPPNPEDIVLDGDSSQQEVPESSVTPETNSETPKESTVLGNPEEPSE”, which “soluble on expression in E. coli” value is on record?
The value was “soluble”.

With “VALLGLILPYFVSRWWARTQSYTKKGIHNVTASNFVSNLVNYKPSEIVTTDLILHWLSFAHEFKQFFPDLQPTDFEKLLQDHINRRDSGKLNNAKFRIVAKCHSLLHGLLDIACGFRNLDIALGAINTFKCIVQAVPLTPNCQILQLPNVDKEHFITKTGDIHTLGKLFTLEDAKIGEVLGIKDQAKLNETLRVASHIPNLKIIKADFLVPGENQVTPSSTPYISLKVLVRSAKQPLIPTSLIPEENLTEPQDFESQRDPFAMMSKQPLVPYSFAPFFPTKRRGSWCCLVSSQKDGKILQTPIII” as the sequence, how does the “soluble on expression in E. coli” value read?
The value was “not soluble”.

With “IKVQIEKQLSERILLIDGGMGTMIQGYKFEEEDYRGERFNKWHCDLKGNNDLLVLSQPQIIRDIHEAYLEAGADILETNTFNATTIAMADYDMESLSEEINFEAAKLAREVADKWTEKTPNKPRYVAGVLGPTNRTCSISPDVNDPGFRNVSFDELVEAYSESTRALIRGGSDLILIETIFDTLNAKACSFAVESVFEELDITLPVMISGTITDASGRTLSGQTTEAFYNALRHVKPISFGLNCALGPDELREYVSDLSRISECYVSAHPNAGLPNAFGEYDLSPEDMAEHVAEWASSGFLNLIGGCCGTTPEHIRQMALVVEGVKPRQLPELPVACRLSGLEPLTIEKDSLFINVGERTNVTGSARF” as the sequence, how does the “soluble on expression in E. coli” value read?
The value was “not soluble”.

With “MGSDKIHHHHHHMALVKLQPGDITSDDPIPFPIYSADGKLLLQEGQSVTTSSLLDRLYDLGYRKSTEKVRSGPFNPVSHAPQVNTELLISSAHAHEKALPKPEAISGRSMNVLPTLKHRVEFFRLTPAGGSEAIHVDLVGVVHEKTIIVRSTGPDESVVLDPEHSYQAKLFTGSHLSTFSTRLTPDGVGPFGCYYLEYPDNLIHATVRKHRRVTTSFPAKLQSGEYQRASVDVTVSNISLIGAGVSSSVDFLTVGQSARLSMNLSVAQRVRPVEVYVEVRNRREKDGGFFYGLEFVRVSDEVRLEIKDFVLDSLATL” as the sequence, how does the “soluble on expression in E. coli” value read?
Its value is “not soluble”.

With “NTKGIDEIKNLETDFNGRIGVYALDTGSGKSFSYRANERFPLCSSFKGFLAAAVLKGSQDNRLNLNQIVNYNTRSLEFHSPITTKYKDNGMSLGDMAAAALQYSDNGATNIILERYIGGPEGMTKFMRSIGDEDFRLDRWELDLNTAIPGDERDTSTPAAVAKSLKTLALGNILSEHEKETYQTWLKGNTTGAARIRASVPSDWVVGDKTGSCGAYGTANDYAVVWPKNRAPLIISVYTTKNEKEAKHEDKVIAEASRIAIDNLK” as the sequence, how does the “soluble on expression in E. coli” value read?
Its value is “soluble”.

Which “soluble on expression in E. coli” value does the source give for “MRWKRTLQLLDVHCEGEIGRVVTGGAPKIPGNTVAEQLHWMNTDPQGEALRRFLTLEPRGTPMGSVDLLLPPKHPDAHAAFVILQPDQAHASSGSNSICATTALLESGMVEMQEPETVIILETAAGLVKATATCRDGRCEKVKLTMVPSFVHELDVSIDTPEWGRVTMDISYGGIFYALVDVRQIGLTIEKANAAKLVAAGMTLKDLVNREMTVVHPEIPAISGVAYVMFRDVDADGSIRTCTTMWPGRADRSPCGTGNSANLATLYARGKVKVGDEYKSRSIIGSEFDVGLSAVTEVAGRPAVIPTIAGRGFTFGLHQVGLDPFDPLGDGFAMTDVWGPEAGNI” here?
The value was “not soluble”.

With “MSLGEQTTISDSKGLFHKEFPYVIPPVYRKVLDEYLVELNLLSNQSNFKIDTIFSYGLIISFERFTVGYEPDSHISKILESLCNSCNIDIKAIKEYSNNIKKLINEKGIKEIINILTAEIKKSVGGIALSNQSGKDKYYSRLHAIGIYELISNINEDKKEGDDKEIISECVEALGFSKDRVEKDINQYKNSMEKIKEMMELIKLTVEETKRKAKLNEGHHHHHH” as the sequence, how does the “soluble on expression in E. coli” value read?
The value was “soluble”.

Which “soluble on expression in E. coli” value does the source give for “MMIMLDPFSEKAKELLKGFGSINDFMDAIPKIVSVDDVIERIRVVKNEKLIDKFLDQDNVMDLAQFYALLGALSYSPYGIELELVKKANLIIYSERLKRKKEIKPEEISIDVSTAIEFPTEDVRKIERVYGKIPEYTMKISDFLDLVPDEKLANYYIYEGRVYLKREDLIRIWSKAFERNVERGVNMLYEIRDELPEFYRKVLGEIQAFAEEEFGRKFGEIQGGKLRPEFFPPCIKNALKGVPQGIRNYAITVLLTSFLSYARICPNPPRRNVRVKDCIKDIRVITEEILPIIIEAANRCSPPLFEDQPNEIKNIWYHLGFGYTANPSLEDSGNSTWYFPPNCEKIRANAPQLCTPDKHCKYIRNPLTYYLRRLYLEGRRNAPKRGNKRGKKELLHQLEHHHHHH” here?
The value was “soluble”.
